For the assay, the target named is SpyCatcher‐mi3 fusion protein. The experiment in a line: SDS-PAGE of the covalent conjugate.

From article PMC8459632 come the findings set out here.

Turning to “2019‐nCoV RBD‐SpyTag (from UniProt P0DTC2 319-541) (domain or fragment)”, the stoichiometry N (RBD monomers per particle) was 30.
